From FireProtDB (doi:10.1021/bi990285w) come the findings set out here.

“And” between values parts separate entries of the source, which are not always exact repeats. Equal entries are not always repeated.

For this series the following is noted: Bacillus amyloliquefaciens; pH 8; 22 °C; GdnHCl; Fluorescence; phosphate 20 mM; whole UniProt chain shown.

B1: Barstar wild type, P11540 (protein)
chain: MKKAVINGEQIRSISDLHQTLKKELALPEYYGENLDALWDCLTGWVEYPLVLEWRQFEQSKQLTENGAESVLQVFREAKAEGCDITIILS
In the case of B1, the denaturant m value was 2.5 kcal/mol/M and 1.45 kcal/mol/M and 2.2 kcal/mol/M; the unfolding free energy is 5.1 kcal/mol and 2.1 kcal/mol and 5.6 kcal/mol.
